{
  "source": "patent US9175313B2",
  "about": "“Three-dimensional structure of isoprene synthase and its use thereof for generating variants” (Danisco US Inc., priority 2009, dated 2015)",
  "key": {"[1]": {"assay": "Differential scanning calorimetry, thermal midpoint (Tm)", "format": "physicochemical", "method": "Excessive heat capacity curves were measured using an ultrasensitive scanning high-throughput microcalorimeter, VP-Cap DSC (MicroCal, Inc., Northampton, Mass.). The standard procedure for Differential Scanning calorimetry (DSC) measurements and the theory of the technique is previously published (Freire, E. (1995) Differential Scanning calorimetry Methods. Mol. Biol. 41, 191-218). Approximately 500 μL of 0.5 mg/ml IspS (from strain MD09-167) or variant IspS-L494P (from strain DW399) and IspS-T536F (from strain DW363) (in the absence or presence of 5 mM sodium pyrophosphate) were scanned over a 30-100° C. temperature range. The same sample was then re-scanned to check the reversibility of the process. For IspS the thermal unfolding process was irreversible. The buffer used was 50 mM HEPES, 5 mM MgCl2, pH 7.4, with and without 5 mM sodium pyrophosphate. Sodium pyrophosphate was included for its ability to function as a substrate analog. A 200° C./hr scan rate was used to minimize any artifacts that may result from aggregation. The thermal midpoint (Tm) of the DSC curves was used as an indicator of the thermal stability. The thermal melting curves and the melting points for the wild type IspS and variants are shown in FIG. 56 (buffer only) and 57 (with 5 mM sodium pyrophosphate)."}, "[2]": {"assay": "DMAPP assay of site evaluation library (SEL) lysates with ELISA protein quantitation: specific activity ranked as performance index", "format": "biochemical", "conditions": "for isoprene synthase activity of variants relative to parent, in words: SEL analysis of P. alba IspS; for performance index: primary SEL screen, activity on DMAPP per unit weight relative to the parental molecule (parent = 1)", "method": "1. Prepared Patch Plates from Glycerol Stock Plates. Using a V&S 96 pin Replication Tool, cultures were patched onto a LB Agar 35 CMP/50 Kan large patch plates from overnight glycerol stock plates. Plates were incubated at 30° C. overnight for 20 to 24 hr. Cultures can be stored at 4° C. for up to a week.\n2. Prepared Overnight Growth Plates. 500 mL of LB 35 CMP/50 Kan media were prepared. 300 μL/well of LB 35 CMP/50 Kan media were dispensed into deep 96 well plates (VWR). Using a V&S Replication Tool, the patch inoculum was transferred into deep 96 well plate by touching the tool pins to respective patch and using a circular motion to coat the pins with inoculum. The media was inoculated by dipping the tool then shaking the pin within the well. The overnight growth plates were sealed using a Breathe-Easier Sealing Membrane (Diversified Biotech). The plates were incubated in a Vertiga Shaking Incubator at 30° C. with shaking at 800 rpm overnight for 16 to 18 hr.\n3. Prepared Day Growth Plate. Deep 96 well plates were prepared by dispensing 588 μL/well of LB 35 CMP/50 Kan media. Overnight growth plates were removed from the incubator. Overnight cultures were diluted 50-fold and 12 μL of overnight culture were transferred to day growth plates containing 588 μL/well of LB media containing antiobiotics. Overnight growth plates were sealed with new Breathe-Easier Sealing Membranes. Cultures were incubated at 30° C. and 800 rpm for 2.5 hr. Frozen 12 mM IPTG (Sigma) vials were removed from −20° C. and placed in a hood to thaw.\n4. OD600 Plate Read of Overnight, Induction, and Harvest. 150 μL 1×PBS were dispensed into 96 well Costar Read Plates (#9017). 50 μL of culture samples were transferred to Read Plates. The OD600 reading was recorded using a Spectramax Plate Reader (Molecular Devices).\n5. Induction. Electronic multi-channel pipettors were prepared to dispense 4×20 μL/well of IPTG (if 4× replicates). The multi-dispense option in the electronic pipettor was adjusted if more replicates was necessary. Thawed 12 mM IPTG was poured into 50 mL or 100 mL sterile reservoirs. 20 μL/well of IPTG into each 600 μL/well culture. Overnight growth plates were resealed. Cultures were incubated at 30° C. and 800 rpm for 4 hr. OD600 readings of plates were recorded according instructions above.\n6. Harvest. 400 μL of induced culture were transferred to 800 μL Grenier storage plates. Plates were centrifuged at 3300 rpm for 20 min at 2° to 8° C. in a low speed benchtop centrifuge. Supernatants were discarded, pellets should stay in the conical bottom well. Residual supernatants were slapped out onto a paper towel on the benchtop. Plates were sealed with an aluminum foil membrane (Beckman-Coulter). Plates were covered with a plastic plate lid if available. Storage plates were labeled accordingly and stored frozen at −80° C.\nPlates containing induced cell pellets were removed from the −80° C. freezer and allowed to thaw on the benchtop for 30 minutes prior to lysis. 200 μl of lysis buffer (50 mM Tris pH 8, 25 mM MgCl2, 74 μg/ml DNase I, 250 U/ml lysozyme, 0.1% Tween 20, 0.5 mM PMSF) was added to each pellet, and plates were incubated on an Eppendorf Thermomixer at 25° C. for 30 minutes at 1200 rpm. After lysis, plates were centrifuged at 3450 rpm for 15 minutes at 4° C. Supernatants were then removed and diluted 10-fold prior to DMAPP assay. 80 μl of the diluted supernatant was added to 20 μl of the DMAPP working stock (20 mM DMAPP in 0.1 M Phosphate Buffer pH 8.2, DMAPP triammonium salt, Cayman chemicals) in a Zinsser glass block. Blocks were then sealed with aluminum sealing membranes, and incubated in Thermomixers at 25° C. for 30 minutes at 450 rpm. Reactions were stopped by incubating blocks on Thermomixers at 70° C. for 12 minutes at 450 rpm. GC-MS was then used for headspace measurements to calculate the amount of isoprene produced by each lysates.\nHeadspace Assay. […]"}, "[3]": {"conditions": "buffer alone (50 mM HEPES, 5 mM MgCl2, pH 7.4)"}, "[4]": {"conditions": "in the presence of 5 mM sodium pyrophosphate"}},
  "note": "“Also recorded” adds a separate entry of the source.",
  "data": [
    {"molecule": "L494P: P. alba IspS variant L494P; pDW101, strain DW399, SEQ ID NO: 69 (protein) MEARRSANYEPNSWDYDYLLSSDTDESIEVYKDKAKKLEAEVRREINNEKAEFLTLLELIDNVQRLGLGYRFESDIRGALDRFVSSGGFDAVTKTSLHGTALSFRLLRQHGFEVSQEAFSGFKDQNGNFLENLKEDIKAILSLYEASFLALEGENILDEAKVFAISHLKELSEEKIGKELAEQVNHALELPLHRRTQRLEAVWSIEAYRKKEDANQVLLELAILDYNMIQSVYQRDLRETSRWWRRVGLATKLHFARDRLIESFYWAVGVAFEPQYSDCRNSVAKMFSFVTIIDDIYDVYGTLDELELFTDAVERWDVNAINDLPDYMKLCFLALYNTINEIAYDNLKDKGENILPYLTKAWADLCNAFLQEAKWLYNKSTPTFDDYFGNAWKSSSGPLQLVFAYFAVVQNIKKEEIENLQKYHDTISRPSHIFRLCNDLASASAEIARGETANSVSCYMRTKGISEELATESVMNLIDETWKKMNKEKLGGSPFAKPFVETAINLARQSHCTYHNGDAHTSPDELTRKRVLSVITEPILPFERENLYFQGLEHHHHHH", "values": [
      {"measurement": "increase in the Tm vs wild type", "setting": "[1]; buffer alone", "value": 2.1, "unit": "°C"},
      {"measurement": "thermal melting point (Tm)", "setting": "[1]; [3]", "value": 60.4, "unit": "°C"},
      {"measurement": "increase in the Tm vs wild type", "setting": "[1]; [4]", "value": 2.3, "unit": "°C"},
      {"measurement": "thermal melting point (Tm)", "setting": "[1]; [4]", "value": 57.0, "unit": "°C"},
      {"measurement": "isoprene synthase activity of variants relative to parent, in words", "setting": "[2]", "value": "improved activity; also recorded: high performing"},
      {"measurement": "performance index", "setting": "[2]", "value": 2.64}
    ]},
    {"molecule": "T536F: P. alba IspS variant T536F; pDW87, strain DW363, SEQ ID NO: 95 (protein) MEARRSANYEPNSWDYDYLLSSDTDESIEVYKDKAKKLEAEVRREINNEKAEFLTLLELIDNVQRLGLGYRFESDIRGALDRFVSSGGFDAVTKTSLHGTALSFRLLRQHGFEVSQEAFSGFKDQNGNFLENLKEDIKAILSLYEASFLALEGENILDEAKVFAISHLKELSEEKIGKELAEQVNHALELPLHRRTQRLEAVWSIEAYRKKEDANQVLLELAILDYNMIQSVYQRDLRETSRWWRRVGLATKLHFARDRLIESFYWAVGVAFEPQYSDCRNSVAKMFSFVTIIDDIYDVYGTLDELELFTDAVERWDVNAINDLPDYMKLCFLALYNTINEIAYDNLKDKGENILPYLTKAWADLCNAFLQEAKWLYNKSTPTFDDYFGNAWKSSSGPLQLVFAYFAVVQNIKKEEIENLQKYHDTISRPSHIFRLCNDLASASAEIARGETANSVSCYMRTKGISEELATESVMNLIDETWKKMNKEKLGGSLFAKPFVETAINLARQSHCTYHNGDAHTSPDELTRKRVLSVIFEPILPFERENLYFQGLEHHHHHH", "values": [
      {"measurement": "increase in the Tm vs wild type", "setting": "[1]; buffer alone", "value": 3.8, "unit": "°C"},
      {"measurement": "thermal melting point (Tm)", "setting": "[1]; [3]", "value": 62.1, "unit": "°C"},
      {"measurement": "increase in the Tm vs wild type", "setting": "[1]; [4]", "value": 4.7, "unit": "°C"},
      {"measurement": "thermal melting point (Tm)", "setting": "[1]; [4]", "value": 59.4, "unit": "°C"},
      {"measurement": "isoprene synthase activity of variants relative to parent, in words", "setting": "[2]", "value": "improved isoprene synthase activity; also recorded: high performing"},
      {"measurement": "performance index", "setting": "[2]", "value": 3.60}
    ]}
  ]
}
